Measurements published in patent publication US20120021993A1 (AJOU UNIVERSITY INDUSTRY ACADEMIC COOPERATION FOUNDATION, published 2012).
Changes are numbered by the printed parent chain.

Columns and labels:
[1] = target: cell surface DR4 (human, UniProt O00220 24-468); assay: cell-based or functional assay
[2] = target: T1, human-derived cell death receptor 4, extracellular domain (amino acid residues 1-216), 6xHis tag (human, UniProt O00220 24-239); assay: affinity ELISA, target coated on the plate
T1 construct: extracellular domain; Expressed in E. coli; biotinylated for sorting and flow cytometry; residues 1-216; also called DR4; TRAIL-receptor 1
Method: (§1) In order to measure the affinity and cross reactivity of the anti-DR4, -DR5 and -TNFα protein scaffold variants based on the Kringle domain structure to the target molecules, an enzyme-linked immunosorbent assay (ELISA) was performed. The target molecules DR4, DR5, TNFα and DcR1, DcR2 were attached to a 96 well EIA/RIA plate (COSTARCorning In., USA) by its reaction at 37° C. for 1 hour, and washed three times with 0.1% PBST (0.1% Tween20, pH 7.4, 137 mM NaCl, 10 mM Phosphate, 2.7 mM KCl, SIGMA-ALDRICH Co., USA) for 10 minutes. The target molecules were attached for 1 hour to a 96 well EIA/RIA plate in 1% PBSB (1% BSA, pH 7.4, 137 mM NaCl, 10 mM Phosphate, 2.7 mM KCl, SIGMA-ALDRICH Co., USA), and then washed three times with 0.1% PBST (0.1% Tween 20, pH 7.4, 137 mM NaCl, 10 mM Phosphate, 2.7 mM KCl, SIGMA-ALDRICH Co., USA) for 10 minutes. Then, the anti-DR4, -DR5 and -TNFα Kringle domain variants were bound, and washed three times with 0.1% PBST for 10 minutes. The anti-DR4, -DR5 and -TNFα Kringle domain variants were primarily bound to mouse-derived anti-c-myc 9e10 mAb (Ig Therapy, Korea), and secondarily bound to alkaline phosphatase (AP)-conjugated anti-mouse mAb (Sigma). Each of the Kringle domain variants was reacted with […] (pNPP, Sigma-aldrich Co., USA) and quantified at an absorbance of 405 nm.
(§2) In order to analyze the affinities of the Fc-fused anti-DR4, -DR5 and -TNFα Kringle domains to target molecules, the affinities of the Fc-fused anti-DR4, -DR5 and -TNFα Kringle domains to the target molecules were analyzed using ELISA, as described in Example 8.

[3] = target: cell surface DR5 (human, UniProt O14763 56-440); assay: cell-based or functional assay
[4] = target: T2, human-derived cell death receptor 5, extracellular domain (amino acid residues 1-130), 6xHis tag (human, UniProt O14763 56-210); assay: affinity ELISA, target coated on the plate
T2 construct: extracellular domain; Expressed in E. coli; biotinylated for sorting and flow cytometry; also called DR5; TRAIL-receptor 2
Method: as §1, §2

[5] = target: T1, human-derived cell death receptor 4, …; assay: ELISA, coated target, A405
[6] = target: T3, TNFα, extracellular domain (amino acid residue 1-157), 6xHis tag (human, UniProt P01375 57-233); assay: ELISA, coated target, A405
T3 construct: extracellular domain; Expressed in E. coli; The printed residues 1-157 seem to count on the soluble form, not on the precursor; also called human TNFα; tumor necrosis factor alpha
T3 sequence (P01375 other isoform, or with tags, fused parts or gaps limits assumed): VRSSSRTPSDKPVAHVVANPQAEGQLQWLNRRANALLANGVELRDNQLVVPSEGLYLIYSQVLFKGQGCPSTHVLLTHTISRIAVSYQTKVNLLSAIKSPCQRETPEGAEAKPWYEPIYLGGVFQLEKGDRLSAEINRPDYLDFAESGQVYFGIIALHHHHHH
Method: as §1

[7] = target: T1, human-derived cell death receptor 4, …; assay: ELISA, coated target, single binder concentration not given, A405
Method: as §1

[8] = target: T4, DcR1 (UniProt O14798 26-221, limits assumed); assay: yeast display, flow cytometry MFI [panel KD413]
T4 sequence (looked up): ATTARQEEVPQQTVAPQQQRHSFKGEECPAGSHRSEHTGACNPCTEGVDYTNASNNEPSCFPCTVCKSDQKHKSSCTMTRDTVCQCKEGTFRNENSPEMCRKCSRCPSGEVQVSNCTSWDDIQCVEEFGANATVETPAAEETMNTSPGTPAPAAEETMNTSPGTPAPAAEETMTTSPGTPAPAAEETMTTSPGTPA

[9] = target: T5, DcR2 (UniProt Q9UBN6 56-211, limits assumed); assay: yeast display, flow cytometry MFI [panel KD413]
T5 sequence (looked up): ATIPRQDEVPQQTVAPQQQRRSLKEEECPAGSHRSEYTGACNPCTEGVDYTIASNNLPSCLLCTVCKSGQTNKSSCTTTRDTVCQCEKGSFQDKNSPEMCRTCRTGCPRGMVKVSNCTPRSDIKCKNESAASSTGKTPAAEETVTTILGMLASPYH

[10] = target: T4, DcR1; assay: yeast display, flow cytometry MFI [panel KD548]
[11] = target: T5, DcR2; assay: yeast display, flow cytometry MFI [panel KD548]
[12] = target: T4, DcR1; assay: yeast display, flow cytometry MFI [panel KD415]
[13] = target: T5, DcR2; assay: yeast display, flow cytometry MFI [panel KD415]
[14] = target: T1, human-derived cell death receptor 4, …; assay: ELISA, target coated on the plate
[15] = target: T1, human-derived cell death receptor 4, …; assay: ELISA, homo-dimer against monomer
[16] = target: T2, human-derived cell death receptor 5, …; assay: ELISA, target coated on the plate
[17] = target: T2, human-derived cell death receptor 5, …; assay: ELISA, homo-dimer against monomer

B1: KD413-Fc (Fc fusion)
chain: CAKAEGTGYDGHEHKTHKGIRCQNWYKSKPHYHGHQFRDGDKIKNKKNYCRNPDPRAGPWCFTHGNRNRYELCNQPRC
notes: Disulfide-linked dimer from Pichia pastoris; also called Fc-fused anti-DR4 Kringle domain KD413; not shown: Fc domain region from a hinge of human immunoglobulin G1
- EC50 (a concentration of protein causing a 50% cell death), Jurkat, MTT assay [1]: 60 nM
- affinity [2]: 60 nM

B2: KD415-Fc (Fc fusion)
chain: CTRSKGDEYDGHKHKTNRGLRCQHWPGTKPHFHGDKIKDRHGFRLKKNYCRNPDPQDQPWCFTNRHQHKNELCNQPRC
notes: Disulfide-linked dimer from Pichia pastoris; also called Fc-fused anti-DR4 Kringle domain KD415; not shown: Fc domain region from a hinge of human immunoglobulin G1
- EC50 (a concentration of protein causing a 50% cell death), HL60, MTT assay [1]: 60 nM
- EC50 (a concentration of protein causing a 50% cell death), Jurkat, MTT assay [1]: 80 nM
- affinity [2]: 53 nM

B3: KD506-Fc (Fc fusion)
chain: CPEDRGHEYDGDGDKTNRGHGCQYWDQNKPHHHGHRDKDKFKHRIKKNYCRNPDYETGPWCFTNRYRNKNELCHEPRC
notes: Disulfide-linked dimer from Pichia pastoris; also called Fc-fused anti-DR5 Kringle domain KD506; not shown: Fc domain region from a hinge of human immunoglobulin G1
- EC50 (a concentration of protein causing a 50% cell death), HL60, MTT assay [3]: 230 nM
- EC50 (a concentration of protein causing a 50% cell death), Jurkat, MTT assay [3]: 80 nM
- affinity [4]: 43 nM

B4: KD548-Fc (Fc fusion)
chain: CHQTQGPKYDGNKDKTHKGHKCQSWTKNRPHHHGNKIENEDENRFQKNYCRNPDNKHEPWCFTHGHRDKHELCHEPRC
notes: Disulfide-linked dimer from Pichia pastoris; also called Fc-fused anti-DR5 Kringle domain KD548; not shown: Fc domain region from a hinge of human immunoglobulin G1
- EC50 (a concentration of protein causing a 50% cell death), HL60, MTT assay [3]: 220 nM
- affinity [4]: 58 nM

B5: KD413-KD415 hetero-dimer (designed binder, not shown: small tags and cut ends)
chain: CAKAEGTGYDGHEHKTHKGIRCQNWYKSKPHYHGHQFRDGDKIKNKKNYCRNPDPRAGPWCFTHGNRNRYELCNQPRCGGGGSGGGGSGGGGSGGGGSCTRSKGDEYDGHKHKTNRGLRCQHWPGTKPHFHGDKIKDRHGFRLKKNYCRNPDPQDQPWCFTNRHQHKNELCNQPRC
- EC50 (read off the curve) [5]: ~30 nM

B6: KDT01 (designed binder)
chain: CYEDKGPQYDGDEYGTHKGHRCQNWDENRPHPHGIGHQHKHQVKDGKNYCRNPDDETEPWCFTHKDKYGHELCNRPRC
notes: Soluble monomer from Pichia pastoris; also called KRT01; not shown: C-terminal myc tag-6xHis tag of pPICZaA
- EC50 (read off the curve) [6]: ~2000 nM
- binding result [7]: no binding

B7: KDT02 (designed binder)
chain: CAQDGGPGYDGDKHGTHGGHECQDWTKDGPHIHGFRDQFRDEDQHGKNYCRNPDSQHGPWCFTNEDEHRNELCHEPRC
notes: Soluble monomer from Pichia pastoris; also called KRT02; not shown: C-terminal myc tag-6xHis tag of pPICZaA
- EC50 (read off the curve) [6]: ~2000 nM
- binding result [7]: no binding

B8: KD413L56 (designed binder)
chain: CMHCSGENYDGKISKTMSGLECQAWDSQSPHAHGYIPSKFPNKNLKKNYCRNPDPRAGPWCFTHGNRNRYELCDIPRC
- binding result [8]: no binding
- binding result [9]: no binding

B9: KD548L56 (designed binder)
chain: B8 chain with P55N, R56K, A57H, G58E, N66H, N68D, R69K, Y70H
- binding result [10]: no binding
- binding result [11]: no binding

B10: L5 (KD413) (designed binder)
chain: B8 chain with H64T, G65D, N66P, R67N, N68K, Y70W
notes: also called KD413L5
- binding result [8]: no binding
- binding result [9]: no binding

B11: L56 (KD415) (designed binder)
chain: CMHCSGENYDGKISKTMSGLECQAWDSQSPHAHGYIPSKFPNKNLKKNYCRNPDPQDQPWCFTNRHQHKNELCDIPRC
notes: also called KD415L56
- binding result [12]: no binding
- binding result [13]: no binding

B12: L567 (KD413) (designed binder)
chain: B8 chain with D74N, I75Q
notes: also called KD413L567
- binding result [8]: no binding
- binding result [9]: no binding

B13: L567 (KD548) (designed binder)
chain: CMHCSGENYDGKISKTMSGLECQAWDSQSPHAHGYIPSKFPNKNLKKNYCRNPDNKHEPWCFTHGHRDKHELCHEPRC
notes: also called KD548L567; not shown: Aga2p display anchor, linker and c-myc tag of the pCTCON yeast display vector
- binding result [10]: no binding
- binding result [11]: no binding

B14: L1234 (KD548) (designed binder)
chain: CHQTQGPKYDGNKDKTHKGHKCQSWTKNRPHHHGNKIENEDENRFQKNYCRNPDRELRPWCFTTDPNKRWELCDIPRC
notes: also called KD548L1234
- binding result [10]: no binding
- binding result [11]: no binding

B15: L1234 (KD413) (designed binder)
chain: CAKAEGTGYDGHEHKTHKGIRCQNWYKSKPHYHGHQFRDGDKIKNKKNYCRNPDRELRPWCFTTDPNKRWELCDIPRC
notes: also called KD413L1234
- binding result [8]: no binding
- binding result [9]: no binding

B16: anti-DR4 KD413 homo-dimer (designed binder)
chain: CAKAEGTGYDGHEHKTHKGIRCQNWYKSKPHYHGHQFRDGDKIKNKKNYCRNPDPRAGPWCFTHGNRNRYELCNQPRCGGGGSGGGGSGGGGSGGGGSCAKAEGTGYDGHEHKTHKGIRCQNWYKSKPHYHGHQFRDGDKIKNKKNYCRNPDPRAGPWCFTHGNRNRYELCNQPRC
- affinity value [14]: 43 nM
- fold increase of affinity against the monomer [15]: ~10 fold

B17: anti-DR4 KD415 homo-dimer (designed binder)
chain: CTRSKGDEYDGHKHKTNRGLRCQHWPGTKPHFHGDKIKDRHGFRLKKNYCRNPDPQDQPWCFTNRHQHKNELCNQPRCGGGGSGGGGSGGGGSGGGGSCTRSKGDEYDGHKHKTNRGLRCQHWPGTKPHFHGDKIKDRHGFRLKKNYCRNPDPQDQPWCFTNRHQHKNELCNQPRC
- affinity value [14]: 87 nM
- fold increase of affinity against the monomer [15]: ~10 fold

B18: anti-DR5 KD506 homo-dimer (designed binder)
chain: CPEDRGHEYDGDGDKTNRGHGCQYWDQNKPHHHGHRDKDKFKHRIKKNYCRNPDYETGPWCFTNRYRNKNELCHEPRCGGGGSGGGGSGGGGSGGGGSCPEDRGHEYDGDGDKTNRGHGCQYWDQNKPHHHGHRDKDKFKHRIKKNYCRNPDYETGPWCFTNRYRNKNELCHEPRC
- affinity value [16]: 31 nM
- fold increase of affinity against the monomer [17]: ~10 fold

B19: anti-DR5 KD548 homo-dimer (designed binder)
chain: CHQTQGPKYDGNKDKTHKGHKCQSWTKNRPHHHGNKIENEDENRFQKNYCRNPDNKHEPWCFTHGHRDKHELCHEPRCGGGGSGGGGSGGGGSGGGGSCHQTQGPKYDGNKDKTHKGHKCQSWTKNRPHHHGNKIENEDENRFQKNYCRNPDNKHEPWCFTHGHRDKHELCHEPRC
- affinity value [16]: 53 nM
- fold increase of affinity against the monomer [17]: ~10 fold
